The values below come from publication PMC3961188, “The bHLH Factors Extramacrochaetae and Daughterless Control Cell Cycle in Drosophila Imaginal Discs through the Transcriptional Regulation of the cdc25 Phosphatase string”.

Data set [1] has as its target T1, Daughterless (Da), GST fusion (Drosophila melanogaster, UniProt P11420 1-710).
T1 sequence: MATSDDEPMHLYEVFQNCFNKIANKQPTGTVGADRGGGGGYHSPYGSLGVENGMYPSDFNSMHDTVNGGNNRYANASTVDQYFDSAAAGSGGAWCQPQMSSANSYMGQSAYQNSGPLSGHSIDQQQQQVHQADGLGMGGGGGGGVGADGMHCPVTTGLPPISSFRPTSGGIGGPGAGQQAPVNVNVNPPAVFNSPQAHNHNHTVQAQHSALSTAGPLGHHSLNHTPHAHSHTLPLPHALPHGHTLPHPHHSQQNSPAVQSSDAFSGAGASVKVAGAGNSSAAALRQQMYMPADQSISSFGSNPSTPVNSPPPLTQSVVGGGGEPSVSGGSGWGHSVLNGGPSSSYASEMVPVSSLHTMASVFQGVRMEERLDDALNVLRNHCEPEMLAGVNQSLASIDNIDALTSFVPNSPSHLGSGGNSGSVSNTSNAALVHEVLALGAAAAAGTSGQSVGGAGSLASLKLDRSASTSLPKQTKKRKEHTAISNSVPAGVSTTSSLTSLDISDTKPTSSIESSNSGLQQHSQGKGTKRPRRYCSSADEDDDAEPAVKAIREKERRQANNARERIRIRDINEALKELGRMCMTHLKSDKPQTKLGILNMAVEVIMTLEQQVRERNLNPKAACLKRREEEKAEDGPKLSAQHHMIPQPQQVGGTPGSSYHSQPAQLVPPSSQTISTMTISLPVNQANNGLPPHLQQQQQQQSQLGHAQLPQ
As to the kind of experiment: EMSA; Cy5 and Cy3 versions of the probe; not stated in the material (EMSA buffer, salt, pH and temperature not given). As to conditions: protein: recombinant; tags: N-terminal GST (pDEST 15); chain copies: 2; blunt. On the technique in general: Mobility shift assays separate free from complexed probe on a gel.

Data set [2] addresses T1, Daughterless (Da), GST fusion. As to the kind of experiment: EMSA; direct Cy5 probe; not stated in the material (EMSA buffer, salt, pH and temperature not given). As to conditions: protein: recombinant; tags: N-terminal GST (pDEST 15); chain copies: 2; blunt.

B1: stg prom (cy5 / cy3) (dsDNA)
DNA 1: TAGCTCATCAGCTGATCGTGA
DNA 2: TCACGATCAGCTGATGAGCTA
In the case of B1, the binding result in data set [1] is given as “binds”.

B2: stg prom* (cy5) (dsDNA)
DNA 1: TAGCTCATACTAGTATCGTGA
DNA 2: TCACGATACTAGTATGAGCTA
As to B2, the binding result in data set [2] is given as “no binding”.
